In US6673354B2, “Compositions and methods for treating papillomavirus-infected cells” (priority 1998, dated 2004):
Where no end group is shown, it is not given here.

Experiments:
[1] = target: T1, interaction between HPV11 E1 and HPV16 E2 (Human papillomavirus 11, UniProt P04014); test: In vitro HPV E1-E2 binding assay, HPV11 E1 and HPV16 E2
T1 construct: made in house; host or cells: Hi-Five insect cells infected with recombinant baculovirus (HPV-11 EE-E1 virus a gift from Louise Chow); nuclear extracts
T1 sequence (P04014 whole entry, looked up): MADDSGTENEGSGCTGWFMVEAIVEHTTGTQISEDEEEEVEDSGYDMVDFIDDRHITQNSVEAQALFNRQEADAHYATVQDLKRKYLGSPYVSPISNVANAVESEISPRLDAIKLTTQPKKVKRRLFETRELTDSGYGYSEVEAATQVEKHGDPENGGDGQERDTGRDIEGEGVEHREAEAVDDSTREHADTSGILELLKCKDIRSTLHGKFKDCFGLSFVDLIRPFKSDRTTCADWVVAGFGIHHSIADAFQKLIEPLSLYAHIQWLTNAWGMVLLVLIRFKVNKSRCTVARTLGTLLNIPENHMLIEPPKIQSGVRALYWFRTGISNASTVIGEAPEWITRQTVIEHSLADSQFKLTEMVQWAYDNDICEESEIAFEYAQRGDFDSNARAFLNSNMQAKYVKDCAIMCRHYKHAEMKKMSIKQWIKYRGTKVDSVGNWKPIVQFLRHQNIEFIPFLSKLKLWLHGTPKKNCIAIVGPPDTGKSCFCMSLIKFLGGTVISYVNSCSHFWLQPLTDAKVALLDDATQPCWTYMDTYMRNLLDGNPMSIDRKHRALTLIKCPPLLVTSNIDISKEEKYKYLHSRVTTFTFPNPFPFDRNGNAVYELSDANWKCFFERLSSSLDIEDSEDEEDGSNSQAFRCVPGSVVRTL
Procedure: (§1) In vitro HPV E1-E2 binding assay. 300-500 ng protein from HPV16 or HPV11 EE-E1 expressing recombinant baculovirus infected cell nuclear extracts and 80-120 ng from HPV E2 baculovirus infected cell nuclear extracts were incubated in 500 μl NET-gel buffer (50 mM Tris-HCl pH7.5, 150 mM NaCl, 0.1% NP-40, 1 mM EDTA, 0.25% gelatin) at 4° C. for one hour. 1-2 μg anti-EE monoclonal antibody was added and incubated with shaking at 4° C. for one hour. Immune complexes were precipitated with protein-G agarose beads and washed twice for 30 minutes with ice cold NET-gel buffer. Precipitated proteins were detected by Western blot using appropriate primary antibodies and anti-rabbit IgG HRP or anti-mouse IgG HRP (Amersham). Membranes were blocked for one hour in TNET (10 mM Tris 7.5, 2.5 mM EDTA, 50 mM NaCl, 0.1% Tween-20) containing 4% (w/v) dry milk. Washes and antibody reactions were carried out in TNET, and proteins were visualized by chemiluminescence (Reneaissance ECL, NEN) and autoradiography. Bands were quantitated using the NIH image program.
(§2) Very little is known about the physical properties of domains within the papillomavirus E1 and E2 proteins that are involved in intermolecular recognition and association. […] The effect of the E2N-WP15 peptide on these interactions was also assessed. […]

[2] = target: T2, HPV11 E1/E2 interaction (Human papillomavirus 11, UniProt P04014); test: In vitro HPV E1-E2 binding assay, HPV11 E1 and HPV11 E2
T2 construct: made in house; host or cells: Hi-Five insect cells infected with recombinant baculoviruses (gift from Louise Chow); nuclear extracts
T2 sequence (P04014 whole entry, looked up): T1 sequence (P04014 whole entry, looked up)
Procedure: as §1, §2

Sequence: WKHMRLACAIYYKAR [E2N-MP15]
- inhibition of interaction between HPV11 E1 and HPV16 E2 [1]: did not inhibit
- inhibition of HPV11 E1/E2 interaction [2]: did not inhibit
